Assay results from publication PMC2132610 (The Journal of Cell Biology, 1997).

B1: AOX with the COOH-terminal LARF replaced by RSC (AOX–RSC, pHWO41) (enzyme, P. pastoris)
chain: MAIPEEFDILVLGGGSSGSCIAGRLANLDHSLKVGLIEAGENNLNNPWVYLPGIYPRNMKLDSKTASFYTSNPSPHLNGRRAIVPCANVLGGGSSINFMMYTRGSASDYDDFQAEGWKTKDLLPLMKKTETYQRACNNPDIHGFEGPIKVSFGNYTYPVCQDFLRASESQGIPYVDDLEDLVTAHGAEHWLKWINRDTGRRSDSAHAFVHSTMRNHDNLYLICNTKVDKIIVEDGRAAAVRTVPSKPLNPKKPSHKIYRARKQIVLSCGTISSPLVLQRSGFGDPIKLRAAGVKPLVNLPGVGRNFQDHYCFFSPYRIKPQYESFDDFVRGDAEIQKRVFDQWYANGTGPLATNGIEAGVKIRPTPEELSQMDESFQEGYREYFEDKPDKPVMHYSIIAGFFGDHTKIPPGKYMTMFHFLEYPFSRGSIHITSPDPYAAPDFDPGFMNDERDMAPMVWAYKKSRETARRMDHFAGEVTSHHPLFPYSSEARALEMDLETSNAYGGPLNLSAGLAHGSWTQPLKKPTAKNEGHVTSNQVELHPDIEYDEEDDKAIENYIREHTETTWHCLGTCSIGPREGSKIVKWGGVLDHRSNVYGVKGLKVGDLSVCPDNVGCNTYTTALLIGEKTATLVGEDLGYSGEALDMTVPQFKLGTYEKTGRSC
B2: wild-type alcohol oxidase of Pichia pastoris (AOX-WT) (enzyme, P. pastoris, UniProt F2QY27 1-663, looked up)
chain: MAIPEEFDILVLGGGSSGSCIAGRLANLDHSLKVGLIEAGENNLNNPWVYLPGIYPRNMKLDSKTASFYTSNPSPHLNGRRAIVPCANVLGGGSSINFMMYTRGSASDYDDFQAEGWKTKDLLPLMKKTETYQRACNNPDIHGFEGPIKVSFGNYTYPVCQDFLRASESQGIPYVDDLEDLVTAHGAEHWLKWINRDTGRRSDSAHAFVHSTMRNHDNLYLICNTKVDKIIVEDGRAAAVRTVPSKPLNPKKPSHKIYRARKQIVLSCGTISSPLVLQRSGFGDPIKLRAAGVKPLVNLPGVGRNFQDHYCFFSPYRIKPQYESFDDFVRGDAEIQKRVFDQWYANGTGPLATNGIEAGVKIRPTPEELSQMDESFQEGYREYFEDKPDKPVMHYSIIAGFFGDHTKIPPGKYMTMFHFLEYPFSRGSIHITSPDPYAAPDFDPGFMNDERDMAPMVWAYKKSRETARRMDHFAGEVTSHHPLFPYSSEARALEMDLETSNAYGGPLNLSAGLAHGSWTQPLKKPTAKNEGHVTSNQVELHPDIEYDEEDDKAIENYIREHTETTWHCLGTCSIGPREGSKIVKWGGVLDHRSNVYGVKGLKVGDLSVCPDNVGCNTYTTALLIGEKTATLVGEDLGYSGEALDMTVPQFKLGTYEKTGLARF

Target: the molecule itself
Assay: sucrose velocity gradient sedimentation

Protein	stoichiometry N
B1	8
B2	8
